In patent publication US20240026035A1 (published 2024):

B1: human alpha-gal-specific IgE mAb 16D9 (antibody, V domains shown)
VH: QVQLQQWGAGLLKPSETLSLTCAVYGGTFSDYFYTWIRQPPGKGLEWIGEVSHTGRTSYIPSLKSRVTMSVDTSKNQFSLNLSSVTDADTAVYYCGRGRGYTWNDWGQGTLVTVSS
VL: QSALTQPASVSGSPGQSITISCTGTITDVGGYDYVSWYQQHPGKAPKLIIFLVNNRPSGVSDRFSGSKSGNTASLTISGLRVEDEADYYCMSYTCSNPYTCSSLYVFGTGTKVTVL
notes: the IgE constant regions are not
B2: human alpha-gal-specific IgE mAb 10H8 (antibody, V domains shown)
VH: QVQLVESGGGVVQPGRSLRLSCAVSGFTFRSFGMHWVRQAPGKGLEWVAVIWHDGSNKHYADSVKGRFTISRDDSKNTLFLQMNSLRAEDTAVYYCARESEEQGNMDVWGQGTTVTVSS
VL: DVVMTQSPLSLPATLGQPASISCRSSHSLVYSNGNTYLNWFQQRPGQSPRRLFFQVSNRDSGVPDRFSGSGSVTNFTLKISRVEAEDVGVYYCMEGSHWPPYTFGQGTRLDIR
notes: as for B1

Molecular target: T1, bovine thyroglobulin (bovine, UniProt P01267 20-2769, carries alpha-gal (galactose-alpha-1,3-galactose) glycans)
T1 construct: Antigen coated on ELISA plates, blotted, or on the ImmunoCAP o215 solid phase; It is recognised through its alpha-gal glycans; also called BTG; Thyroglobulin, bovine
T1 sequence (P01267 20-2769 limits assumed): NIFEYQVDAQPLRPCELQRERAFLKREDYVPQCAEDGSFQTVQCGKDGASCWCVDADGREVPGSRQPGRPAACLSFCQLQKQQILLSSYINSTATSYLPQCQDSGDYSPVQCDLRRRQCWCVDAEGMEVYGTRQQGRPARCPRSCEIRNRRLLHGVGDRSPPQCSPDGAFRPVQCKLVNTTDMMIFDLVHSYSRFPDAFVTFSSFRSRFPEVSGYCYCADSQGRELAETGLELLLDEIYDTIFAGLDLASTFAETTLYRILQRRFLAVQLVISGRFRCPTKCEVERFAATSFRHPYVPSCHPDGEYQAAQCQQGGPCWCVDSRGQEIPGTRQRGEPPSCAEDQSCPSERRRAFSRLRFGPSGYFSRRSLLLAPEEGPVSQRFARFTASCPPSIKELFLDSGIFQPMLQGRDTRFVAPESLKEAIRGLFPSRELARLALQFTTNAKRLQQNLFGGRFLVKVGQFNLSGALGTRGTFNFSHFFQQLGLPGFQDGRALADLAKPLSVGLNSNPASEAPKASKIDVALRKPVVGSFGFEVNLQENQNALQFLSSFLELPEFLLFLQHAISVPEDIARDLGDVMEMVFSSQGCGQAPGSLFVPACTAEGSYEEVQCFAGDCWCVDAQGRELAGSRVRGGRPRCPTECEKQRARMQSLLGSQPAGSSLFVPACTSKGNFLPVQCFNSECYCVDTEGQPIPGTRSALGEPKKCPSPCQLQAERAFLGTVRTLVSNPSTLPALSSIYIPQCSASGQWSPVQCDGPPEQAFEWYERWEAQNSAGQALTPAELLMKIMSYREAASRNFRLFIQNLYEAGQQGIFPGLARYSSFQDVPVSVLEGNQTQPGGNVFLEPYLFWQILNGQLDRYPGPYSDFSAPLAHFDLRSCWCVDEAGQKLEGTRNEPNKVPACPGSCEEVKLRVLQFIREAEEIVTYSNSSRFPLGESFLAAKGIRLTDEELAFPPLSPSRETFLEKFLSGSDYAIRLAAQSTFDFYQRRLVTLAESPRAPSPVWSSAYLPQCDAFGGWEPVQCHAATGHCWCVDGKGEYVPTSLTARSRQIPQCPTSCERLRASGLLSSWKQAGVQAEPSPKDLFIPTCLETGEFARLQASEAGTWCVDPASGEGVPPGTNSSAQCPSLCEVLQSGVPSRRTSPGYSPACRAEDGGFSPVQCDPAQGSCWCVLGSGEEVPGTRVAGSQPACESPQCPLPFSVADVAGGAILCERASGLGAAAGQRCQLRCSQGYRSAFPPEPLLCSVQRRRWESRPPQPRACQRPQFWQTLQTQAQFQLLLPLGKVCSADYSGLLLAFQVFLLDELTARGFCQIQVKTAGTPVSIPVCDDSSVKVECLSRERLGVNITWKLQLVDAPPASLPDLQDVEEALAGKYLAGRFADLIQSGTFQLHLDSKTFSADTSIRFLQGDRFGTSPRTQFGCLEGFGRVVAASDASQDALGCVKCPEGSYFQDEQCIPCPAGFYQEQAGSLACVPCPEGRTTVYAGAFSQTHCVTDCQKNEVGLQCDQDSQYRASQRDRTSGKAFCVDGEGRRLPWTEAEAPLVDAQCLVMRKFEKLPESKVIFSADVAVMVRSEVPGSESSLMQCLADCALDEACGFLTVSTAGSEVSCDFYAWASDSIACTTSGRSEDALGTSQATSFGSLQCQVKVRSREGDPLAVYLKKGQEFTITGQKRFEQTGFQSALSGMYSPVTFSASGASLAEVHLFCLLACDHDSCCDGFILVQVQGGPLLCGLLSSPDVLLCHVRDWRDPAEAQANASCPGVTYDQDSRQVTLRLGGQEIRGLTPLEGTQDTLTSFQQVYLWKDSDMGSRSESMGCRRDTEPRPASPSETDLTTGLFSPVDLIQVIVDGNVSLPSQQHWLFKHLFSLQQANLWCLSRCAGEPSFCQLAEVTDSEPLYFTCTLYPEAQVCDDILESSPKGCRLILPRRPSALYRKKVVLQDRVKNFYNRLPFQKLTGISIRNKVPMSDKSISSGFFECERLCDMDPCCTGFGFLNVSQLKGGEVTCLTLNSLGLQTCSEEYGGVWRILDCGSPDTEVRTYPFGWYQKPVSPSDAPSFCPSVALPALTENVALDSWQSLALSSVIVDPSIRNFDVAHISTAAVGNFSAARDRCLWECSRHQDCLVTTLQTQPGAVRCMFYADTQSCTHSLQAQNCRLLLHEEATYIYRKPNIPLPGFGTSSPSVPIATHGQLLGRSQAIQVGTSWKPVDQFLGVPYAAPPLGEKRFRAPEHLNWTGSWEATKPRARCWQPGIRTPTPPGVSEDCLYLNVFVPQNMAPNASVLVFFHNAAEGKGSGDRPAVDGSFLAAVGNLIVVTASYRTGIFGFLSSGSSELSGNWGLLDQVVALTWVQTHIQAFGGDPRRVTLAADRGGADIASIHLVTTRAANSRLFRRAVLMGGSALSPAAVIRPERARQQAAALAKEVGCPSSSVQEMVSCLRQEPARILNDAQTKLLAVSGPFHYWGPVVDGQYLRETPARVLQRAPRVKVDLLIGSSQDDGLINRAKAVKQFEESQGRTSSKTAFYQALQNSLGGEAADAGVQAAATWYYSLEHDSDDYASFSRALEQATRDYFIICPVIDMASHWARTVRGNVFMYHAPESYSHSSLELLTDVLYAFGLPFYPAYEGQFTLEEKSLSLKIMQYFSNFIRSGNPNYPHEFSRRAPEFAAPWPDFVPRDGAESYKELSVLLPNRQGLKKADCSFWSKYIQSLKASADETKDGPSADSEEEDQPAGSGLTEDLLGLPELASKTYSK
Assay: direct ELISA, bovine thyroglobulin coated at 25 ug/ml, purified IgE dilution series
Source text: Relative fluorescence intensity or optical density was determination on a Molecular Devices plate reader.
By performing EC₅₀ assays using purified IgE mAb, rough comparisons between mAb binding can be made.

| Binder | EC50 |
| --- | --- |
| B1 | 0.016 µg/mL |
| B2 | 0.072 µg/mL |
